Source: PMC12101283, “Validation and Optimization of PURE Ribosome Display for Screening Synthetic Nanobody Libraries” (Antibodies, 2025)

B1: F4_C9 (VHH)
VHH: QVQLVESGGGLVQAGGSLRLSCAASGPPFSFVFMGWYRQAPGKEREFVAAIFDFTDETYYADSVKGRFTISRDNAKNTVYLHMNSLKPEDTAVYYCAAARGLNYWNNVYWGQGTQVTVSS
notes: source: E. coli BL21; supernatant of lysed cells (ELISA; captured on Ni-NTA for the pull-down)
B2: F4_B6 (VHH)
VHH: QVQLVESGGGLVQAGGSLRLSCAASGVDMHNFEMGWYRQAPGKEREFVAAIDDVQPLTYYADSVKGRFTISRDNAKNTVYLQMNSLKPEDTAVYYCAAVKGDFWSESNYWGQGTQVTVSS
notes: source: E. coli BL21; supernatant of lysed cells (ELISA; captured on Ni-NTA for the pull-down); purified (Ni-NTA, SEC) for SEC and ITC

Key:
[1] = biological target: T1, human fatty acid binding protein 4 (Homo sapiens, UniProt P15090); assay: pull-down; His-tagged nanobody captured from E. coli supernatant on Ni-NTA agarose and washed; 100 µL target protein solution (approximately 0.2 mg/mL) added; washes with PBS (10 mM imidazole in the 3rd); elution with 200 mM imidazole; SDS-PAGE; settings: both partners purified
T1 construct: The methods describe only the plasmid His-SUMO-hFABP4-(GGGGS)4-SBP; also called hFABP4; FABP4; source: E. coli BL21 (DE3), purified (Ni-NTA, SEC); not shown: His, N-terminal, cleaved; SUMO, N-terminal, cleaved

[2] = biological target: T1, human fatty acid binding protein 4; assay: ITC; MicroCal PEAQ ITC, 25 °C, PBS, one binding site model; 50 µM F4_B6 in cell with 550 µM hFABP4 in syringe; settings: both partners purified

T1 sequence (P15090 whole entry): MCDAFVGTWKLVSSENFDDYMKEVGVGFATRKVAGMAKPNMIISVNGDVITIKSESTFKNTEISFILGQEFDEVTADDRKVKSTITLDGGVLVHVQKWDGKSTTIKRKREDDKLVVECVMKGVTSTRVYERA

Binder | binding result [1] | Kd [2] [nM]
B1 | binds | –
B2 | – | ~295
